Tests used:
[1] = tested on: TH+ dopamine neurons in mesencephalic cultures; assay: Tyrosine hydroxylase (TH) immunoreactivity in mesencephalic cultures; format: cell-based, rat; settings: added at day of plating, examined eight days later
Method: FIGS. 20A-B depicts the ability of GDNF to stimulate dopamine uptake and tyrosine hydroxylase (TH) immunostaining in dopaminergic neurons. Cultures were established as described in Example 1B. […] B. […] Primary antibody binding was visualized using a Vectastain ABC kit (Vector Labs, Burlingame, Calif.).
Culture conditions: Dissociated mesencephalic cell cultures were prepared as previously described (Friedman and Mytilineou 1987 Neurosci. Lett. 79:65-72), with minor modifications. Briefly, rostral mesencephalic tegmentum from brains of Sprague-Dawley rat embryos, at the 16th day of gestation, were dissected under the microscope in sterile conditions, collected in Ca^2+- and Mg^2+-free Dulbecco's phosphate buffered saline (Gibco, Gaithersburg, Md.) and dissociated mechanically by mild trituration. The cells were plated in 100 μl per well onto 16-mm diameter tissue culture wells (Falcon, Lincoln Park, N.J., 24-well plate) containing 400 μl medium to give a density of 2.5-3.5×10^5 cells per well. The culture wells had been previously exposed to 0.1 mg/ml solution of poly L-ornithine in 10 mM sodium borate, pH 8.4, for 3 hours at 37° C., washed 3 times in milli-Q H2O and once in Earle's balanced salt solution (Gibco). […]

[2] = tested on: serotonergic neurons in rat embryo mesencephalic cultures; assay: 3H-serotonin uptake in mesencephalic cultures; format: cell-based; settings: uptake after 6 days in vitro
Method: FIGS. 24A-B depicts the specificity of GDNF to dopaminergic neurons. Cultures were prepared as described in Example 1B. GDNF was added on the day of plating, and uptake was measured after 6 days in vitro. A depicts dopamine uptake and B depicts serotonin uptake.
In the presence of 10 μM citalpram (obtained from Dr. C. Mytilineou, Mount Sinai School of Medicine), a known potent inhibitor of serotonin uptake in serotonin neurons, the ^3H-serotonin uptake was reduced to 15%.

[3] = tested on: parasympathetic nerve cells from chick embryo ciliary ganglia; assay: Neuronal survival assay (MTT), ciliary ganglia; format: cell-based
Method: Cultures of primary check embryo ciliary ganglia and sympathetic chain ganglia were prepared as previously described (Collins 1978 Develop. Biol. 65:50; Manthorpe et al. 1986 Develop. Brain Res. 25:191). Briefly, ciliary or sympathetic ganglia were removed from fertile, pathogen free chicken eggs that had been incubated for 8 and 10 days, respectively, at 38° C. in a humidified atmosphere. […]
Ten μl of a serial dilution of the sample to be assayed for neurotrophic activity was added to each well and the dishes were incubated for 20 hours at 37° C. in a humidified atmosphere containing 7.5% CO2. […] The absorbance of 570 nm was determined relative to a 690 nm reference for each well using an automatic microtiter plate reader (Dynatech, Chantilly, Va.). The absorbance of wells which had not received any neurotrophic agent (negative controls) was substracted from the absorbance of sample-containing wells. The resulting absorbance is proportional to the number of living cells in each well, defined as those nerve cells capable of reducing the dye. […] Specific activity was determined by dividing the number of trophic units by the amount of protein present in the sample.

[4] = tested on: sympathetic neurons from chick embryo sympathetic chain ganglia; assay: Neuronal survival assay (MTT), sympathetic chain ganglia; format: cell-based
Method: Cultures of primary check embryo ciliary ganglia and sympathetic chain ganglia were prepared as previously described (Collins 1978 Develop. Biol. 65:50; Manthorpe et al. 1986 Develop. Brain Res. 25:191). Briefly, ciliary or sympathetic ganglia were removed from fertile, pathogen free chicken eggs that had been incubated for 8 and 10 days, respectively, at 38° C. in a humidified atmosphere. The ganglia were chemically dissociated by exposure first to Hands' Balanced Salt Solution without divalent cations, containing 10 mM HEPES buffer pH 7.2 for 10 min at 37° C., and then by exposure to a solution of 0.125% bactotrypsin 1:250 (Difco, Detroit, Mich.) in Hanks' Balanced Salt Solution modified as above for 12 min at 37° C. Trypsinization was stopped by addition of fetal calf serum to a final concentration of 10%.
After this treatment, ganglia were transferred to a solution consisting of Dulbecco's high glucose Modified Eagle Medium without bicarbonate containing 10% fetal calf serum and 10 mM HEPES, pH 7.2 and were mechanially dissociated by trituration approximately 10 times through a glass Pasteur pipet whose opening had been fire polished and constricted to a diameter such that it took 2 seconds to fill the pipet.
The dissociated ganglia were then plated in culture medium (Dulbecco's Modified Eagle Medium supplemented with 10% fetal calf serum, 4 mM glutamine, 60 mg/L penicillin-G, 25 mM HEPES, pH 7.2) in 100 mm diameter tissue culture dishes (40 dissociated ganglia per dish) for three hours. […] After three hours, the nonadherent nerve cells were collection by centrifugation, resuspended in culture medium, and plated in 50 μl per well onto half area 96 well microtiter tissue culture plates at a density of 1500 nerve cells per well. The microtiter wells had been previously exposed to a 1 mg/ml solution of poly-L-ornithine in 10 mM sodium borate, pH 8.4 overnight at 4° C., washed in distilled water and air dried.
Ten μl of a serial dilution of the sample to be assayed for neurotrophic activity was added to each well and the dishes were incubated for 20 hours at 37° C. in a humidified atmosphere containing 7.5% CO2. After 18 hours for ciliary and 40 hours for sympathetic ganglia, 15 μl per well of a 1.5 mg/ml solution of the tetrasolium dye MTT in Dulbecco's high glucose Modified Eagle Medium without bicarbonate containing 10 mM HEPES, pH 7.2, was added and the cultures placed in the 37° C. incubator for 4 hours. Then, 75 μl of a solution of 6.7 ml of 12 M HCl per liter of isopropanol was added and the contents of each well triturated 30 times to break open the cells and suspend the dye. The absorbance of 570 nm was determined relative to a 690 nm reference for each well using an automatic microtiter plate reader (Dynatech, Chantilly, Va.). The absorbance of wells which had not received any neurotrophic agent (negative controls) was substracted from the absorbance of sample-containing wells. The resulting absorbance is proportional to the number of living cells in each well, defined as those nerve cells capable of reducing the dye. The number of trophic units of neurotrophic activity was defined as the reciprocal of the dilution that gave 50% of maximal survival of nerve cells. Specific activity was determined by dividing the number of trophic units by the amount of protein present in the sample.

B1: glial cell line-derived neurotrophic factor (protein)
chain: SNMPEDYPDQFDDVMDFIQATIKRLKRSPDKQMAVLPRRERNRQAAAANPENSRGKGRRGQRGKNRGCVLTAIHLNVTDLGLGYETKEELIFRYCSGSCDAAETTYDKILKNLSRNRRLVTDKVGQACCRPIAF
notes: dopaminergic neurotrophic protein purified from serum-free conditioned medium of rat B49 glioblastoma cells; disulfide-bonded dimer
number of TH+ neurons over controls without GDNF [1]: tenfold higher | effect on serotonin uptake [2]: fails to increase the uptake of serontonin | survival of parasympathetic nerve cells [3]: promotes the survival in culture of parasympathetic nerve cells | bioactivity in sympathetic neuron survival bioassay [4]: promotes the survival in culture of symphathetic nerve cells | ED50 for sympathetic neuron survival ([4]; chick embryo (E10) sympathetic ganglia): about 5 ng/ml
